# Source: publication doi:10.1101/2025.07.03.663104 (bioRxiv, 2025)
# B1: OsPR5-His (natural protein)
# chain: ATFTITNRCSFTVWPAATPVGGGVQLSPGQTWTINVPAGTSSGRVWGRTGCSFDGSGRGSCATGDCAGALSCTLSGQKPLTLAEFTIGGSQDFYDLSVIDGYNVAMSFSCSSGVTVTCRDSRCPDAYLFPEDNTKTHACSGNSNYQVVFCP
# Biological target: ThBP24k (recombinant, no tag named) (Magnaporthe oryzae, UniProt G4NG01)
# Assay: BLI
# Conditions: both partners purified
binder,measurement,value
B1,Kd,2.41 nM
